B1: Protein phosphatase Slingshot homolog 1 (Homo sapiens), Q8WYL5 (parent)
chain: MALVTLQRSPTPSAASSSASNSELEAGSEEDRKLNLSLSESFFMVKGAALFLQQGSSPQGQRSLQHPHKHAGDLPQHLQVMINLLRCEDRIKLAVRLESAWADRVRYMVVVYSSGRQDTEENILLGVDFSSKESKSCTIGMVLRLWSDTKIHLDGDGGFSVSTAGRMHIFKPVSVQAMWSALQVLHKACEVARRHNYFPGGVALIWATYYESCISSEQSCINEWNAMQDLESTRPDSPALFVDKPTEGERTERLIKAKLRSIMMSQDLENVTSKEIRNELEKQMNCNLKELKEFIDNEMLLILGQMDKPSLIFDHLYLGSEWNASNLEELQGSGVDYILNVTREIDNFFPGLFAYHNIRVYDEETTDLLAHWNEAYHFINKAKRNHSKCLVHCKMGVSRSASTVIAYAMKEFGWPLEKAYNYVKQKRSITRPNAGFMRQLSEYEGILDASKQRHNKLWRQQTDSSLQQPVDDPAGPGDFLPETPDGTPESQLPFLDDAAQPGLGPPLPCCFRRLSDPLLPSPEDETGSLVHLEDPEREALLEEAAPPAEVHRPARQPQQGSGLCEKDVKKKLEFGSPKGRSGSLLQVEETEREEGLGAGRWGQLPTQLDQNLLNSENLNNNSKRSCPNGMEDDAIFGILNKVKPSYKSCADCMYPTASGAPEASRERCEDPNAPAICTQPAFLPHITSSPVAHLASRSRVPEKPASGPTEPPPFLPPAGSRRADTSGPGAGAALEPPASLLEPSRETPKVLPKSLLLKNSHCDKNPPSTEVVIKEESSPKKDMKPAKDLRLLFSNESEKPTTNSYLMQHQESIIQLQKAGLVRKHTKELERLKSVPADPAPPSRDGPASRLEASIPEESQDPAALHELGPLVMPSQAGSDEKSEAAPASLEGGSLKSPPPFFYRLDHTSSFSKDFLKTICYTPTSSSMSSNLTRSSSSDSIHSVRGKPGLVKQRTQEIETRLRLAGLTVSSPLKRSHSLAKLGSLTFSTEDLSSEADPSTVADSQDTTLSESSFLHEPQGTPRDPAATSKPSGKPAPENLKSPSWMSKS

Variants of: B1
Details: with limk1_human LIMK1, P53667
Chain of limk1_human LIMK1, P53667 (P53667 whole entry, looked up): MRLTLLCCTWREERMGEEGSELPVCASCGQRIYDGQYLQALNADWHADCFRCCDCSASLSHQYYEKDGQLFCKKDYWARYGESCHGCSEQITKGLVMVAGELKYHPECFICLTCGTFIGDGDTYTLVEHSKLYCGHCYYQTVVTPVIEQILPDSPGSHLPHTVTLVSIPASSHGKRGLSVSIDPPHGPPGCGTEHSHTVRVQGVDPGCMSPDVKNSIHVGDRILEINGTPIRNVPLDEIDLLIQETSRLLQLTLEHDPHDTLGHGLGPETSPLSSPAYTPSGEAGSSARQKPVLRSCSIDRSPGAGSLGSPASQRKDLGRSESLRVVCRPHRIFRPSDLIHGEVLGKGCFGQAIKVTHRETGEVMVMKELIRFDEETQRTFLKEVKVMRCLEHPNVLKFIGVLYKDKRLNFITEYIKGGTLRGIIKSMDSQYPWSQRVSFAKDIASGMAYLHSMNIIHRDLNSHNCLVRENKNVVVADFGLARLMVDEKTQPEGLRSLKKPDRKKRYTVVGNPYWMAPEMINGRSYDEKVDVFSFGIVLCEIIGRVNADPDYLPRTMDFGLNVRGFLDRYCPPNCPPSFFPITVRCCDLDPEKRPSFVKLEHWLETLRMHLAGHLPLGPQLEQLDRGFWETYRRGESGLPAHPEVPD

Variant	effect of a mutation on the interaction
C393S	disrupting interaction
